Key:
Khc 855-941 = Khc 855-941 (Drosophila melanogaster, UniProt P17210 855-941); test: EMSA
Khc-FL = Khc-FL (Drosophila melanogaster, UniProt P17210 1-975); test: EMSA
Khc-FL, sequence (P17210 whole entry): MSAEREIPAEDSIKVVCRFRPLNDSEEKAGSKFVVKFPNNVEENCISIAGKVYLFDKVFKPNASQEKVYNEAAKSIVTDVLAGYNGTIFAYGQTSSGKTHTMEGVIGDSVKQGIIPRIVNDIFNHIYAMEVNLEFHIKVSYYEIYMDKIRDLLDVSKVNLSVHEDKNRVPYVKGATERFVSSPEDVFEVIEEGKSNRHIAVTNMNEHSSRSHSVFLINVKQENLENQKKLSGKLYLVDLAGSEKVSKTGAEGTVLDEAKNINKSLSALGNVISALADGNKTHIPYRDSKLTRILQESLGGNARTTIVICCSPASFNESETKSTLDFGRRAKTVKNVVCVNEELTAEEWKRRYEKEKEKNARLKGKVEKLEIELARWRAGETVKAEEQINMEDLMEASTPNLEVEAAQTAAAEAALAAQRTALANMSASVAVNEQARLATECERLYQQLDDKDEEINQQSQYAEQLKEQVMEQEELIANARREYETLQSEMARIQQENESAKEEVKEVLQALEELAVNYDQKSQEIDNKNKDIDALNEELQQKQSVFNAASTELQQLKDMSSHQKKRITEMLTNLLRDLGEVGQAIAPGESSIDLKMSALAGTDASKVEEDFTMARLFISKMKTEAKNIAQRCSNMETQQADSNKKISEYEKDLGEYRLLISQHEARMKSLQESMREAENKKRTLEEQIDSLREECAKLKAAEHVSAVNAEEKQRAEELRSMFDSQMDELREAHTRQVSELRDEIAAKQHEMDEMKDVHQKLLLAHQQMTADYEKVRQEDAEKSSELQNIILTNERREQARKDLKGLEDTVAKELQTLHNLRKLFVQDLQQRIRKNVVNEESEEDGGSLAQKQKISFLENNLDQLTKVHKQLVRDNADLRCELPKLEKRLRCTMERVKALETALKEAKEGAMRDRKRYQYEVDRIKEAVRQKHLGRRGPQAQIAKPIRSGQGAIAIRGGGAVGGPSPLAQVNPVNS

Khc 855-941, sequence (P17210 855-941): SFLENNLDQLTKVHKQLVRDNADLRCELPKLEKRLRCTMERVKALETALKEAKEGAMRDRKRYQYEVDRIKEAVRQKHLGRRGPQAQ

Q: Does UUUUUUUUUUUUUUUUUUUUUUUUU (ssRNA) [oligo-(U25) RNA] bind (Khc 855-941)?
A: binds

Q: Does UUUUUUUUUUUUUUUUUUUUUUUUU (ssRNA) [oligo-(U25) RNA] bind (Khc-FL)?
A: binds

Reference: article PMC8247599
